The values that follow come from patent US20050063985A1 (MCW RESEARCH FOUNDATION, published 2005).

The test addresses T1, glutathione S transferase (pGEX-4T-2 vector control lysate) (UniProt P08515 1-218 = GST).
T1 construct: In a bacterial lysate; also called GST; Control bacterial lysates encoding only glutathione S transferase
The experiment in a line: Western or dot blot, bacterial lysate.

T1 sequence (P08515 whole entry): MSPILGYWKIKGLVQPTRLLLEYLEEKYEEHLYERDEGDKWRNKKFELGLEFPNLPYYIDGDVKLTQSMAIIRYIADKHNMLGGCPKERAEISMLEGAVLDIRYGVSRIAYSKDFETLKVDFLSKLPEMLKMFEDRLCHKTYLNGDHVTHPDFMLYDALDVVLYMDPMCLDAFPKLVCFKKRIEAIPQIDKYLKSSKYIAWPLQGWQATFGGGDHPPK

B1: monoclonal antibody mab 166 (antibody, V domains shown)
VH: QVQLKQSGPGLVQPSQSLSITCTVSGFSLTSYGVHWVRQSPGKGLEWLGVIWSGGDTDYNAAFISRLSISKDNSKSQLFFKMNSLRATDTAIYYCARNRGDIYYDFTYAMDYWGQGTSVTVSS
VL: DIQMTQSPASLSASVGETVTITCRASGNIQNYLAWYQQTQGKSPQLLVYSAKTLADGVPSRFSGSGSGTQYSLKINSLQPEDFGSYYCQHFWSTPYTFGGGTKLEIKR
notes: also called mabl66; m166
As for B1, the binding result is “no binding”.
